Laboratory results: patent US20110311601A1, “ANTIMICROBIAL MEDICAL DEVICES” (priority 2010, published 2011)
Where no end group is shown, it is not given here.

Experiments:
[1] = system: Escherichia coli strain DB3.1; experiment: microdilution assay of hβD2 coated biopolymers (percentage killing); assay type: cell-based; conditions: blocking substance alone, without hβD2
Procedure: Microdilution assay. In the microdilution assay the microorganisms were exposed to a potential bio-active substance in liquid surrounding, thus free to move. This potential bio-active substance was either homogenously dispersed in the liquid surrounding by active mixing at the beginning of the tests or could spread out of the sample during incubation time. The bioactivity was measured in percentage killing, wherein the number of colony forming units (CFU) in a control without test substance was set to 0% killing and a reduction in the cell number to zero was set to 100% killing.
Fresh cells were harvested by centrifugation at 1600 rpm for 10 min, the supernatant was removed and the cell pellet was resuspended in 5 ml 10 mM sodium phosphate buffer. This procedure was repeated twice. The optical density was adjusted to OD600 of 0.500 with 10 mM sodium phosphate buffer. 100 μl of the bacterial suspension was pipetted in one well of a microtiter plate without optimized surface. 10 μl test substance or test sample was added. In case of a test substance, the mixture was homogenized by absorbing the mixture several times with a pipette. The microtiter plate is then closed with parafilm and incubated at 37° C. for 2 h. After incubation the substances in the wells were mixed by a pipette. […] For evaluation, the grown colonies were counted.
The microdilution assay facilitates the examination of the hβD2 release kinetics of the biopolymers and thus allowed conclusions on what amounts of hβD2 in which time could be released. For comparing on evaluation of the assay the effect of directly applied hβD2 amounts with the effect of hβD2 amounts applied on biopolymers, the achieved percentage killing of bacteria was compared to the killing rate of the hβD2 standard series in the microdilution assays.
The collagen scaffolds and polylactide matrices were examined in the microdilution assay regarding their hβD2 release kinetics. Since the incubation time of the samples in the bacterial suspension is limited, the samples were stored at −25° C. after the test and until completion of a further assay. The thawed samples were then used in a new assay and were incubated again.

gram-positive bacteria = conditions: covalently attached onto titanium surfaces, in vitro; cited from earlier work
[2] = target: collagen scaffold (bovine collagen type I) (bovine, UniProt P02453 162-1217; P02465 80-1117, limits assumed); experiment: cell-based or functional assay
[3] = system: Escherichia coli strain DB3.1; experiment: micro-dilution assay of coated titanium pins and peptide controls (bacterial killing, CFU); assay type: cell-based; conditions: for antibacterial activity, killing: 10 μg coated on SAM 1, SAM 2, SAM 3 titanium pins, 2 h
Procedure: In a first experiment 10 μg of hβD2 was coated to three different SAM Hexadecyltrimethoxysilane (SAM 1), Dimethoxymethyloctylsilane (SAM 2), and oxidized Allyltrimethoxysilane (SAM 3) of the modified titanium pins. The anti-bacterial activity of the hβD2-coated pins was tested by a micro-dilution assay. Therefore, Escherichia coli strain DB3.1 (Invitrogen, Cat. No. 11782-018) was used. E. coli was streaked from a glycerol stock onto a Brain Heart Infusion (BHI) agar plate (3.7% (w/v) BHI Bouillon, 1.5% (w/v) Agar), grown overnight at 37° C. and subsequently used to inoculate 40 ml of 3.7% (w/v) BHI Bouillon without any antibiotics in 100 ml flasks. Fresh cells were harvested by centrifugation at 16000 rpm for 10 min and washed twice with 10 mM sodium phosphate buffer, pH 7.2. The optical density was adjusted to 10^4 cells/ml. For anti-bacterial testing, a single pin coated with hβD2 was incubated in one well of a microtiter plate containing 100 μl of the bacterial suspension.
Functionalized titanium pins without hβD2 served as negative controls (SAM1-n, SAM2-n, SAM3-n, SAM4::Col-NHS-n, SAM4::Col-Glu-n). In addition, 5 independent control reactions consisting of hβD2 in a final amount of 0 (NC), 0.02 (PC1), 0.2 (PC2), 2 (PC3) and 10 (PC4) μg were examined in parallel. To determine the specificity of the anti-bacterial activity of hβD2, 10 μl (10 μg/ml in PBS) of polyclonal monospecific anti-hβD2 antibodies were co-incubated with 10 μg of hβD2 and bacterial cells (Table I, PC4/ab).
The microtiter plates were incubated for 2 h at 37° C. The kinetic studies were performed by replacing the bacterial suspension, after 2 h of cultivation with a freshly pre-cultured E. coli solution, which contained the same bacterial concentration, and cultivating for another 2 h and so on. Colony forming units (CFU) were determined after plating 100 μl of a 1:100 dilution of the bacterial suspension on petri dishes with BHI medium and incubating them overnight at 37° C. For every group of the functionalized titanium pins and the controls, 5 independent anti-bacterial assays were performed. A control (NC) of bacterial growth was examined for every independent assay. The number of CFU on the control (consisting of a single petri dish) was set to 0% bactericidal activity. The reduction in the CFU resulting from the anti-bacterial activity of hβD2 was related to the absolute CFU of the control within every independent assay. This value, given as a percentage of the bacterial “killing” activity, was used to describe the antibacterial activity. This kind of normalisation of the antibacterial data was performed for every experimental group.
To examine the release behavior of hβD2 that is adsorbed by different SAM modified titanium pins a time kinetic experiment was performed. The experiment was performed analogous to Example 2. For this experiment 80 μg of hβD2 was adsorbed to three different SAMs Hexadecyltrimethoxysilane (SAM1), Dimethoxymethyloctylsilane (SAM2), and oxidized Allyltrimethoxysilane (SAM3) of the modified titanium pins.
Since it is known that collagen has a positive impact on wound healing, functionalised titanium pins with collagen were investigated. Two different cross-linking strategies for collagen on SAM3 and SAM4 were applied as described in Example 1: (i) a covalently binding strategy with the NHS/EDC cross-linking system, and (ii) the use of glutaraldehyde. Successful binding of collagen was monitored by collagen-specific DirectRed staining (as described in Example 1). […] Additionally 80 μg hβD2 was adsorbed to collagen functionalized SAM3 and SAM4 modified titanium pins, respectively. For monitoring the antibacterial activity of the bio-coated pins the experiment was performed analogous to Example 3. […]

[4] = 80 μg adsorbed on SAM3 titanium pins, 6 h
[5] = 80 μg on collagen SAM4 pins, NHS/EDC-system, 4 h
[6] = 80 μg on collagen SAM4 pins, NHS/EDC-system, 6 h
[7] = 80 μg on collagen SAM4 pins, glutaraldehyde, 4 h
[8] = 80 μg on collagen SAM4 pins, glutaraldehyde, 6 h

Sequence of collagen scaffold (bovine collagen type I) (P02453 162-1217 limits assumed, chain 1 of 2): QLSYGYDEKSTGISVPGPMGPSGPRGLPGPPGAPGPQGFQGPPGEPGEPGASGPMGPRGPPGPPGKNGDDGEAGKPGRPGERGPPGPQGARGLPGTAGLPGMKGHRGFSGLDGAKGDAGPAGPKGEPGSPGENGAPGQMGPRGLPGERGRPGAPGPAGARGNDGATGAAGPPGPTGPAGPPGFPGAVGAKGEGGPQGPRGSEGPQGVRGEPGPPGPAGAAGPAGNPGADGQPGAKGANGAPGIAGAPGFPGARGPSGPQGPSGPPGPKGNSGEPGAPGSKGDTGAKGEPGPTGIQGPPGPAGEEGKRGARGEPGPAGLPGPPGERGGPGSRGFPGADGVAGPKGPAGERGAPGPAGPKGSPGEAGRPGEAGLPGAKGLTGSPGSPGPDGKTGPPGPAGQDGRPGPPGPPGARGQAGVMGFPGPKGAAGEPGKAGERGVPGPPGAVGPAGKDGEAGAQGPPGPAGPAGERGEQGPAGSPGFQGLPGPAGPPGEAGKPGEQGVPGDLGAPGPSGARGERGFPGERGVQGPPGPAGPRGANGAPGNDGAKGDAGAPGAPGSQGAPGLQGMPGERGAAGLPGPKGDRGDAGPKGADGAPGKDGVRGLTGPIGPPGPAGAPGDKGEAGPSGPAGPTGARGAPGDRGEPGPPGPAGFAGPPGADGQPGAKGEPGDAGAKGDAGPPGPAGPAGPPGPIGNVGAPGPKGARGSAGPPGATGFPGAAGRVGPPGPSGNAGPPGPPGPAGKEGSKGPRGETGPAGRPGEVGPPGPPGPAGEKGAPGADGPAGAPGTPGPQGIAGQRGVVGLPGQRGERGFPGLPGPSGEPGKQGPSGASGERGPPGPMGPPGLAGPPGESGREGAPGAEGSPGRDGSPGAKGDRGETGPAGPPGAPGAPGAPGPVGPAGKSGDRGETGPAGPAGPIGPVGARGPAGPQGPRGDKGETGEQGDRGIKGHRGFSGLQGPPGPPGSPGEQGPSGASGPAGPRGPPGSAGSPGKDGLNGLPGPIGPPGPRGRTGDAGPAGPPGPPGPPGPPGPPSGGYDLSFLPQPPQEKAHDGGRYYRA
Sequence of collagen scaffold (bovine collagen type I) (P02465 80-1117 limits assumed, chain 2 of 2): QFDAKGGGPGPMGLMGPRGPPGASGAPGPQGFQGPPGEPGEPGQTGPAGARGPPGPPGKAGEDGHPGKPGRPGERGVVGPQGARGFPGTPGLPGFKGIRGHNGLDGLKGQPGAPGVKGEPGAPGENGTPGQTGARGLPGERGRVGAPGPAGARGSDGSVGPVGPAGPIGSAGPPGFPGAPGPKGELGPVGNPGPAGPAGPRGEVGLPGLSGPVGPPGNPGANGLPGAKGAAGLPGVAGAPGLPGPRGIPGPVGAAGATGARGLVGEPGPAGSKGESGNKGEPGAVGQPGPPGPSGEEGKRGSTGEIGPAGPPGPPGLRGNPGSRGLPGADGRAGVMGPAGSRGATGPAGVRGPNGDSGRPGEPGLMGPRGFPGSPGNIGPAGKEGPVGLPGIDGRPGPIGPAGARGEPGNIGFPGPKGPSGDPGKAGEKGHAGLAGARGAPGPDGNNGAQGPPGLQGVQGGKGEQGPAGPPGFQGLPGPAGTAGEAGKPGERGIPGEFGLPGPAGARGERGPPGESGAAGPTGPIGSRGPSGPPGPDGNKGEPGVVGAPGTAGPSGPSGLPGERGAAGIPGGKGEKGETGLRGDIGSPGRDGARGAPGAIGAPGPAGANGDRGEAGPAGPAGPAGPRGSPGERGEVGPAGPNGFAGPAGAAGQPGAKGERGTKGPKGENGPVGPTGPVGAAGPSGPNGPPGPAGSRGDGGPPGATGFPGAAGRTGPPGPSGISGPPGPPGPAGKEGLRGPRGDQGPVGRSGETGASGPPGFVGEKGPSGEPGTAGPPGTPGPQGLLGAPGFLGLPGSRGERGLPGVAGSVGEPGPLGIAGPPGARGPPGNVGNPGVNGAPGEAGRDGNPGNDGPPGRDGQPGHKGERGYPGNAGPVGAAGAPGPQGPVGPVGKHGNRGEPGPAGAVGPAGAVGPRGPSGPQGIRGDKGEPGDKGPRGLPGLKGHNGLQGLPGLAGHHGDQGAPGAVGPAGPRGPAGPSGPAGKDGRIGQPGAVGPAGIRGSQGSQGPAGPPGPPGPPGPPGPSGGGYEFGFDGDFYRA

For N[C@@H](CCC(=O)O)C(=O)O [L-glutamic acid, reference compound], the “self-activity (killing / reduction of the number of bacteria)” value [1] was 4%.

For NCCCC[C@H](N)C(=O)O [L-lysine, reference compound], the “self-activity (killing / reduction of the number of bacteria)” value [1] was 4%.

In the case of O=C([O-])CC(O)(CC(=O)[O-])C(=O)[O-].[Na+].[Na+].[Na+] [Sodium citrate, sodium citrate, reference compound], the “self-activity (killing / reduction of the number of bacteria)” value [1] is reported as 100%.

In the case of NCCCCNCCCN [spermidine, reference compound], the “self-activity (killing / reduction of the number of bacteria)” value [1] is reported as 35%.

For CN[C@H](CC(C)C)C(=O)N[C@H]1C(=O)N[C@@H](CC(N)=O)C(=O)N[C@H]2C(=O)N[C@H]3C(=O)N[C@H](C(=O)N[C@H](C(=O)O)c4cc(O)cc(O)c4-c4cc3ccc4O)[C@H](O)c3ccc(c(Cl)c3)Oc3cc2cc(c3O[C@@H]2O[C@H](CO)[C@@H](O)[C@H](O)[C@H]2O[C@H]2C[C@](C)(N)[C@H](O)[C@H](C)O2)Oc2ccc(cc2Cl)[C@H]1O [vancomycine], the “reduced colony-forming of gram-positive bacteria” value (gram-positive bacteria) is listed as “up to 88%”.

In the case of “chondroitin sulphate [reference compound]”, the “self-activity (killing / reduction of the number of bacteria)” value [1] is reported as 23%.

In the case of “poly-L-glutamic acid [reference compound]”, the “self-activity (killing / reduction of the number of bacteria)” value [1] is reported as “no self-activity”.

With poly-L-lysine [reference compound] the “self-activity (killing / reduction of the number of bacteria)” value [1] was 100%.

B1: human β-defensin-2 (peptide)
peptide: GIGDPVTCLKSGAICHPVFCPRRYKQIGTCGLPGTKCCKKP
modifications: ends and bridges not checked; cysteine pairing not given here
In the case of B1, the “hβD2 released by the scaffold (agar diffusion assay, zone of inhibition against E. coli, 10 µg hβD2 applied)” value [2] is reported as 40% and the “hβD2 retarded by the scaffold (agar diffusion assay, zone of inhibition against E. coli, 10 µg hβD2 applied)” value [2] is reported as 60%.

B2: Ribonuclease 7 (protein)
chain: KPKGMTSSQWFKIQHMQPSPQACNSAMKNINKHTKRCKDLNTFLHEPFSSVAATCQTPKIACKNGDKNCHQSHGPVSLTMCKLTSGKYPNCRYKEKRQNKSYVVACKPPQKKDSQQFHLVPVHLDRVL
modifications: Homo sapien
With B2 the “antibacterial activity, killing” value [3] was “about 90%”, the killing rate [3, 4] was 21% and the killing rate [3, 5] was 49%. The killing rate [3, 6] was “about 22%”, the killing rate [3, 7] was 77% and the killing rate [3, 8] was “about 8%”.

B3: mutRNAse7: Ribonuclease 7 derivative, SEQ ID NO: 10 (protein)
chain: KPKGMTSSQWFKIQHMQPSPQACNSAMKNINKHTKRCRDLNTFLHEPFSSVAATCQTPKIACKNGDKNCHQSHGPVSLTMCKLTSGKYPNCRYKEKRQNKSYVVACKPPQKKDSQQFHLVPVDLDRVL
modifications: Synthetic primer
With B3 the “antibacterial activity, killing” value [3] was “about 90%”, the killing rate ([3]; 80 μg adsorbed on SAM1 titanium pins, 6 h) was about 41% and the killing rate [3, 4] was 17%. The killing rate [3, 5] was 53%, the killing rate [3, 6] was about 17% and the killing rate [3, 7] was 75%. For the same molecule, the killing rate [3, 8] was about 15%.
